Measured values taken from US20160289331A1 (NATIONAL UNIVERSITY CORP HOKKAIDO UNIVERSITY, published 2016).
One block for each molecule: values may come before it.

Columns and labels:
[1] = molecular target: mDR6 expressed on mouse T cells (DO11.10-T cells, splenocytes) (mouse) (UniProt Q9EPU5); assay: cell-based or functional assay
[2] = molecular target: T1, mouse Sdc1 (mSdc1) expressed on cells (mouse, UniProt P18828 18-311, heparan sulfate is bound at position 45 and position 47); assay: binding of labeled Fc fusions to DO11.10-T cells expressing mSdc1
T1 construct: On DO11.10-T or A20 cells transformed with pMXsIG/mSdc1, and endogenous on A20 cells (shRNA experiment); also called mouse syndecan-1; CD138
T1 sequence: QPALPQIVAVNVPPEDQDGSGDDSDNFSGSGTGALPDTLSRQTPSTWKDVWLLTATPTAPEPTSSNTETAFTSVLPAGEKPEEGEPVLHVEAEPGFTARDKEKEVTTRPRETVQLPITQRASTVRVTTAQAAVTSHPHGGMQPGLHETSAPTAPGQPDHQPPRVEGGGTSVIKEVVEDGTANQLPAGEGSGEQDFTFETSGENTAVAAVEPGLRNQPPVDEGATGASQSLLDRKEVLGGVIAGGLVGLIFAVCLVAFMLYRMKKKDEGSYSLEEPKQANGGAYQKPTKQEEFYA
Description: An expression vector (pMXsIG/mSdc1) into which a gene encoding mSdc1 (SEQ ID NO: 7) was incorporated in an expressible manner, and a control vector (pMXsIG) were introduced into DO11.10-T cells to prepare transformed cells. Binding abilities of these two kinds of transformed cells to labeled mDR6-hFcm and to labeled mDR6-hFcm deltaCRD1 was examined, and it was confirmed that binding ability of mDR6-hFcm deltaCRD1 increased to about 2.5 times of that of mDR6-hFcm (FIG. 22).

IL2 production level of DO11.10-T cells stimulated with anti-CD3 antibody, mSdc1-His at final concentration 100 nM [1]: 50%
Molecule: mSdc1-His (ligand)

binding ability relative to mDR6-hFcm [2]: ~2.5 times
B1: mDR6-hFcm deltaCRD1 (Fc fusion)
chain: QPEQKTLSLPGTYRHVDRTTGQVLCHDCSQPCPWPMIERLPCAALTDRECICPPGMYQSNGTCAPHTVCPVGWGVRKKGTENEDVRCKQCARGTFSDVPSSVMKCKAHTDCLGQNLEVVKPGTKETDNVCGMRLFFSSTNPPSSGTVTFSHPEHMESHDVPSSTYEPQGMNSTDSNSTASVRTKVPSGIEEGTVPDNTSSTSGKEGTNRTLPNPPQVTHQQAPHHRHILKLLPSSMEATGEKSSTAIKAPKRGHPRQNAHKHFDINEHL
modifications: labeled
notes: Derived from pcDNA/mDR6-hFcm; the Fc part is that of mDR6-hFcm; also called CRD1-deficient solubilized DR6 mutant; cysteine rich domain-deficient mDR6 mutant; not shown: human IgG Fc region
